{
  "source": "patent US20210238279A1",
  "about": "(Johns Hopkins, published 2021)",
  "key": {"mouse ZnT8-His [1]": {"target": "T1, mouse ZnT8-His (mouse, UniProt Q8BGG0 1-367, limits assumed)", "T1 construct": "Over-expressed in HEK293 cells, solubilized with DDM and immobilized on Ni-NTA plates, or SDS-denatured on immunoblots; not shown: C-terminal poly-histidine tag", "T1 sequence (looked up)": "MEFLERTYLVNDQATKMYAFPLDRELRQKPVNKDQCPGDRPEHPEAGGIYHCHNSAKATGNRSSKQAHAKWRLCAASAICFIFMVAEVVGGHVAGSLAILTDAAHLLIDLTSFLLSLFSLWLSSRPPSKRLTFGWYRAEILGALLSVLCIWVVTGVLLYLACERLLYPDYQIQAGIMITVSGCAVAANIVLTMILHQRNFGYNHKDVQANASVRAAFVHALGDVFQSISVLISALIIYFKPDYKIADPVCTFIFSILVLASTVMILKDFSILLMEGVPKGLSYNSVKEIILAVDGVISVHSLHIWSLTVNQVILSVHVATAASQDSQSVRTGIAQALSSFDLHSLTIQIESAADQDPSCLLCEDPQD", "assay": "ELISA titration on ZnT8-His immobilized on Ni-NTA plate; reference is human ZnT8-His; fold ratio of mouse to human apparent affinity; Ni-NTA plate titration", "description": "(§1) FIG. 7A-7D. mAb binding specificities (FIG. 7A) mAb binding to ZnT8-His immobilized to Ni-NTA plate. Bound mAb20 (red) or mAb39 (magenta) was detected by an HRP-conjugated secondary antibody. Solid lines are least-squares fits of binding datapoints to a one-component binding process. Error bars are standard errors (n=8). (FIG. 7B) SDS-denatured mouse ZnT8-His (labeled as M) and human ZnT8-His (labeled as H) on immunoblots were detected by mAb20 or mAb39 as indicated. […] (FIG. 7C) Detection of endogenous human ZnT8 in EndoC-βH cells by mAb20 or […] immunoblotting. An equal amount of EndoC-βH lysate (5 μg total protein) was loaded to each lane. (FIG. 7D) Immunoblotting of HEK lysates with or with over-expression of a ZnT homolog as indicated. An approximately equal amount of total lysate protein (5 μg) was located to each lane, probed by either mAb20, mAb39, or anti-FALG antibody as indicated. FIG. 8. HTRF response to human ZnT8, mouse ZnT8 and human ZnT3.\n(§2) Binding specificities. […] Of note, the epitope-masking effect of ZnT8 immobilization weakened the apparent binding affinities of both mAbs as compared to the affinities determined by flow-cytometry, and such a weakening effect was more pronounced for mAb39, probably due to a closer proximity of the mAb39 epitope to the C-terminal His-tag. Next, we compared the immunoreactivities of mAbs to denatured ZnT8."}, "human ZnT8-His": {"target": "T2, human ZnT8-His (human, UniProt Q8IWU4-2 1-320, limits assumed)", "T2 construct": "Over-expressed in HEK293 cells, solubilized with DDM and immobilized on Ni-NTA plates (native or unfolded with 2% SDS), or SDS-denatured on immunoblots; also called human ZnT8 with C-terminal poly-histidine tag; not shown: C-terminal poly-histidine tag", "T2 sequence (looked up)": "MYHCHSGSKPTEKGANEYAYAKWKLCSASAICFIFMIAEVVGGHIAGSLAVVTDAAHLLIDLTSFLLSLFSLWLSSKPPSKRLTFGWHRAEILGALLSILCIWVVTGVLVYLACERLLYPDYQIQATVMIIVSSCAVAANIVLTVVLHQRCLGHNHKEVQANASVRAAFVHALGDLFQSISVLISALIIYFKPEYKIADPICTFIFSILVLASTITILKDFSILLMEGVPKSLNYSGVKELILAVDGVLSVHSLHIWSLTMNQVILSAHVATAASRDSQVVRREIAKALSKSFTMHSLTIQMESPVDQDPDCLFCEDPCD", "assay": "ELISA, ZnT8-His on Ni-NTA plate, HRP-conjugated secondary antibody; binder taken from the axis label and paragraph 166; curve taken as human", "description": "as §1, §2"}, "[2]": {"target": "T3, monomeric human ZnT8 CTD-His antigen (aa 275-369) (human, UniProt Q8IWU4 275-369)", "T3 construct": "range 275-369; Immobilized on Ni-NTA plates through the C-terminal poly-histidine tag; also called CTD-His monomer; monomeric CTD antigen; not shown: C-terminal poly-histidine tag", "T3 sequence (looked up)": "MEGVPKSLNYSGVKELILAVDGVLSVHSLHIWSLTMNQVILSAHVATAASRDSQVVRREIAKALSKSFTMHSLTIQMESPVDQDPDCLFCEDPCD", "assay": "ELISA, monomeric CTD-His on Ni-NTA plate", "description": "Error bars represent standard deviations. (FIG. 1B) ELISA against a monomeric CTD antigen immobilized to Ni-NTA plate via a C-terminal poly-histidine tag. CTDA and NTDA were used a positive and negative control, respectively (Z>0.5).\nMaterials and Methods Generating hybridoma. Four pairs of male/female homozygous Slc30a8-1- mice were immunized by weekly intraperitoneal injections of a human ZnT8 antigen (the R325 variant) in reconstituted proteoliposomes. All experiments with mice were approved by the Institutional Animal Care and Use Committee of Johns Hopkins University School of Medicine. Serum antibody titering and validation of anti-ZnT8 specificity by CRISPR/Cas9 ZnT8-knockout were described previously (36). Following a final immunization boost, spleens were isolated. Splenocytes were fused with an immortalized myeloma cell line Sp2/0-Ag14 (CRL-1581, ATCC) at a 4:1 splenocytes-to-myeloma ratio by adding 1 ml of 50% PEG1500 (w/v, Roche) to the cell mixture drop-by-drop over 1 min (37). […] Bound antibodies were detected by an HRP-conjugated goat anti-mouse secondary antibody (Invitrogen, cat. #62-6500) with 1:3000 dilutions in assay buffer, followed by ABTS colorimetric reaction (Life Technologies) and signal readout at 415 nm on a plate reader (Molecular Device). […]"}, "mouse ZnT8-His [3]": {"target": "T1, mouse ZnT8-His", "assay": "ELISA titration on ZnT8-His immobilized on Ni-NTA plate; reference is human ZnT8-His", "description": "as §1, §2"}},
  "data": [
    {"binder": "mAb20 (antibody, V domains shown, Mouse hybridoma mAb purified on protein A/G; In some assays it was labelled with Alexa Fluor 488 or terbium cryptate; also called monoclonal antibody mAb20; anti-ZnT8 mAb20) VH: QIQLVQSGPELKKPGETVKISCKASGYIFTNYPMHWVKQAPGKGLKWMGWINTYSGVPTHADDFKGRFAFSLETSANSAFLQINNLKNEDTATYFCTRSRITPTGGYAMDYWGQGTSVTVSS VL: DVVMTQTPLSLPVSLGDQASISCRSSQSLVHSNGNTYLHWYLQKPGQSPNLLISKVSNRFSGVPERFSGSGSGTDFTLKISRVEAEDLGVYFCSQNTHVPWTFGGGTKLEIKR", "values": [
      {"measurement": "fold difference in apparent binding affinity, mouse against human ZnT8", "setting": "mouse ZnT8-His [1]", "result": 567, "unit": "fold"}
    ]},
    {"binder": "mAb39 (antibody, V domains shown, Mouse hybridoma mAb purified on protein A/G; In some assays it was labelled with Alexa Fluor 555 or d2; also called monoclonal antibody mAb39; anti-ZnT8 mAb39) VH: QVQLQQPGAELVKPGASVKLSCKASGYSFTTYWMHWVKQRPGQGLEWVGDINPRNGRTNYNEKSKSKATLTVDISSSTVYMQVSSLTSEDSAVYYCAIWSGAMDYWGPGTSVTVSS VL: DVVMTQTPLSLPVSLGDQPSISCKSSQSLVHNNGNTYLHWYLQKPGQSPKLLIYKVSNRFSGVPDRFSGSGSGTDFTLKISRVEAEDLGVYFCSQTTHVPPTFGGGTKLEIKR", "values": [
      {"measurement": "EC50 (read off the curve)", "setting": "human ZnT8-His", "result": "~10", "unit": "nM"},
      {"measurement": "binding result", "setting": "[2]", "result": "no binding"},
      {"measurement": "fold difference in apparent binding affinity, mouse against human ZnT8", "setting": "mouse ZnT8-His [3]", "result": 2, "unit": "fold"}
    ]}
  ]
}
